We go through 34 sequences from a protein production outcome set (Wang et al. 2014).

The nature of this data set: label from the status in PepcDB records.
Turning to “ITVADQISHWSAGRIKNRTRIPECIHSSAATTLAGPHTMEGESVKLSSQTLIQAGDDEKNQRTITVNPAHMGKAFKVMNELRSKQLLCDVMIVAEDVEIEAHRVVLAACSPYFCAMFTGDMSESKAKKIEIKDVDGQTLSKLIDYIYTAEIEVTEENVQVLLPAASLLQLMDVRQNCCDFLQSQLHPTNCLGIRAFADVHTCTDLLQQANAYAEQHFPEVMLGEEFLSLSLDQVCSLISSDKLTVSSEEKVFEAVISWINYEKETRLEHMAKLMEHVRLPLLPRDYLVQTVEEEALIKNNNTCKDFLIEAMKYHLLPLDQRLLIKNPRTKPRTPVSLPKVMIVVGGQAPKAIRSVECYDFEEDRWDQIAELPSRRCRAGVVFMAGHVYAVGGFNGSLRVRTVDVYDGVKDQWTSIASMQERRSTLGAAVLNDLLYAVGGFDGSTGLASVEAYSYKTNEWFFVAPMNTRRSSVGVGVVEGKLYAVGGYDGASRQCLSTVEQYNPATNEWIYVADMSTRRSGAGVGVLSGQLYATGGHDGPLVRKSVEVYDPGTNTWKQVADMNMCRRNAGVCAVNGLLYVVGGDDGSCNLASVEYYNPVTDKWTLLPTNMSTGRSYAGVAVIHKSL”, the protein production entry is on record as “not failed”.
For the sequence “IVRDSQRHKQLPVDRRKSQMEEVQDELIHRLTIGRSAAQKKFHVPRQNVPVINITYDSTPEDVKTWLQSKGFNPVTVNSLGVLNGAQLFSLNKDELRTVCPEGARVYSQITVQKAALEDSSGSSELQEIMRRRQEKISAAASDSGVESFDEGSSH”, the protein production entry was “failed”.
Turning to “KASTKLHVGNISPTCTNQELRAKFEEYGPVIECDIVKDYAFVHMERAEDAVEAIRGLDNTEFQGKRMHVQLSTSRLRTA”, the protein production result is “not failed”.
With “KERILSSERLAKIMMSELGDKRQEHLIAIYLDTQNRVIKKQVIFIGSVRRSVAEPREILHYACKSMATSLIIVHNHPSGSTYPSENDLRFTEKIKRSCDDLGIVFLDHIIVGKKEYYSFREETDLV”, the protein production entry is reported as “not failed”.
In the case of “KGSQVKLEVISDEKGAKPRTITLTREQIRLEDRAVKLTEKVINGDKIAILDIPSFYVGLTNDVKTQLQKVAKDNVSALVIDLRGNGGGALTEAIALSGLFIPSGPVVQVRDNNGRVRQDYDRDDVVYYKGPLVVIVNRFSASASEIFAAAMQDYGRALIVGEQTFGKGTVQQYRSLTRVYDQMLSPDWPSLGSVQYTIQKFYRINGGSTQLKGVTPDLLLPSFDNSEMGESNEDNALPW”, the protein production result was “failed”.
Consider “KGVVTIEQIVDTLPDRGRSCWHLGAVWALSQFQENELFLGMYPEEHFIEKPVKEAMARFRKNLEAIVSVIAERNKKKQLPYYYLSPDRIPNSVAI”, for which the protein production result was “failed”.
Under “KHSSTQQRLSRMLHEDGFVMHYQLLQSVVEKDVISFEALLRYQDREGNLCPPTFISDFQLLNMMPTLDKLVIDKVLTDMQKMDLNEDRRVAINISVASIEEHGFAEHVIDRLKFFSIPPHWLEIEITEEAILSDNHNLLSTLEILKSHGIKIAMDDFGTGYASFPHLLKYPFDKIKLDRSLLLDASTTKGKQLYQLIAQMGDVANCEVVAEGVETEDEFKFVAECGVDKVQGFLIARP” stands “failed”; under “KIERDKAERAKKYGGSVGSQPPPVAPEPGPVPSSPSQEPPTKREYDQCRIQVRLPDGTSLTQTFRAREQLAAVRLYVELHRGEELGGGQDPVQLLSGFPRRAFSEADMERPLQELGLVPSAVLIVAKKC”, “failed”.
For the sequence “KIGYGKANPTTRLWVGGLGPNTSLAALAREFDRFGSIRTIDHVKGDSFAYIQYESLDAAQAACAKMRGFPLGGPDRRLRVDFAK”, the protein production result is reported as “not failed”.
For the sequence “KKAKKVRFYRNGDRYFKGIVYAISPDRFRSFEALLADLTRTLSDNVNLPQGVRTIYTIDGLKKISSLDQLVEGESYVCGSIEPFKKLEYTKNVNPNWSVNVKT”, the protein production result is reported as “not failed”.
Take “KKLANADANNDSRVYVAVDGDIGVGYATMKVFMLSNDEYKILSGKYPRQVPVVMLDQIAVDKAYQGKGIGKRLMRKVLEATVLVNELAAAKGLALWAHPRAKDFYESLGFEAIPDATKQVQDVELTLMFIHVETILDALK”: the protein production result is listed as “failed”.
Under “KKLCGYLSKFGGKGPIRGWKSRWFFYDERKCQLYYSRTAQDANPLDSIDLSSAVFDCKADAEEGIFEIKTPSRVITLKAATKQAMLYWLQQLQMKRWEFHNSPPAP” stands “not failed”.
Under “KLIGITGMPGSGKSAITKLAEKYKIVVVSMGDVVRYETLKQGMPLNPENVGNTAVKLREIYGKEAIAVPCLNYVNEKYNNEDFVIIEGIRSIYEVNYIKKHAELDIIAIHSSPKTRFERLSGRNREDDSNDWNTFVERDERELNFSIGRVISLADYMVVNEGNYMDFVNDLENTFKKIINV” stands “failed”.
Under “KMLDEKFYSKLLGEELDLIICLPPDFSPLYKYPLFIVQDGKDYFQFGKLARHSEELAVNEQIQKAIFIGIPYKTVMDRREKYHPDGEQNEAYIRFLAFELVPYLEERFPSFQMPTSRFL” stands “not failed”; under “KNTGSKHNFLNHGLPLNLAIKPYLALKGSVDFPAENGVQNTESTQEKREIGDEENSAKFPIGRRDFDMLRCMLGRVYRPCWQV”, “failed”.
As for “KNVVHQLSVTLEDLYNGATRKLALQKNVICDKCEGRGGKKGAVECCPNCRGTGMQIRIHQIGPGMVQQIQSVCMECQGHGERISPKDRCKSCNGRKIVREKKILEVHIDKGMKDGQKITFHGEGDQEPGLEPGDIIIVLDQKDHAVFTRRGEDLFMCMDIQLVEALCGFQKPISTLDNRTIVITSHPGQIVKHGDIKCVLNEGMPIYRRPYEKGRLIIEFKVNFPENGFLSPDKLSLLEKLLPERKEVEETDEMDQVELVDFDPNQERRRHYNGEAYEDDEHHPRGGVQCQTS”, the protein production result was “failed”.
Consider “KNYDLSDLPGPPSKPQVTDVTKNSVTLSWQPGTPGTLPASAYIIEAFSQSVSNSWQTVANHVKTTLYTVRGLRPNTIYLFMVRAINPQGLSDPSPMSDPVRTQD”, for which the protein production entry is given as “not failed”.
The value for “KPQEGIGARCRRALKDLPLTNLSRLLQCELAEGKALRWGADSLEPAAVVGLNSLGSLVWAPGQPSRWPVPLLLLGGTLDLITPPLDEQLGVFSALASHPSSRVVVVEGASHFSPIRVGEPMA” was “failed”; that for “KQFPGYPEFVLVEIETQRGCPKAMGIGGCSFCTEPVRYKVVENRPQEYVAQEVETFYNMGIRHFRIGRQSCIFSYKARPNGRVPIPKPEEVEKLFKAVRLAAPNVKTLHVDNANPAVIANYPEESRRIAKAIIEYGTPGNVVAFGLETADPKVARINNLNATPEETYEAVKIINEVGGRRGYNGLPWLLPGINIIFGLPGETKRTYELTYEFLKKILDDGLMVRRINIRQVVVFPGTPLWNMRDKVKTEKHKALIEHYRHKIRHEIDLPMLKRVVPVG” was “failed”.
Regarding “KSEAGAGKKVQVEFVSANPTGPLHIGHGRGAAIGDTICRLLAAIGWDVTREFYYNDAGQQIANLALSVQARCLGVEPGGPLWPTDGYQGEYIKDVARSYLNRETVDAGDQHVTAAGDPHDVEAIRRFAVAYLRREQDQDLRAFDVGFDVYFLESSLYAEGRVDDVVQRIIAKGHAYEQDGALWLRTTEFGDDKDRVMRKSDGSYTYFVPDVAYHLNKWERGFIRVVNEQGADHHSTITRVRAGLQALDAGIPKGWPEYVLHQMVTVMRGGEEVKISKRAGSYVTLRDLVDEVGRDATRFFFLMRKPDSQLVFDIDLAKQQTLENPVYYVQYAHARICSIFENAADKGVVPPT”, the protein production result is “failed”.
As to “KSIRLAKEKESQADYISTYVEWQYIDKNITQCFDKMTNMKLEVAWKAKKKDTVVQIHNQDFTVDLSTNTATAPQGQTFTVQRLVKA”, the protein production result was “not failed”.
“KSLTLVLHRDSGSLGFNIIGGRPSVDNHDGSSSEGIFVSKIVDSGPAAKEGGLQIHDRIIEVNGRDLSRATHDQAVEAFKTAKEPIVVQVLRRT”: the protein production entry is “not failed”.
Regarding “KTITGFYPLNQGHDALLARTSLIESAQKSLDLQYYIYRGDETSQLITWRLYEAAKRGVRIRLLLDDMQKRNDNVMAALNAHPNIEIRLFNPHQYRSARIFALTSDFERLNRRMHNKSLIADSVSAIVGGRNIGNEYFSFESEVEFGDFDLLLYGEAVQQTADQFDLYWNSVHAVPMEWISPQSQSVSDAAIQKQVTKLNLQEKFSSGRYDFTALDMYQ”, the protein production result is “failed”.
Take “KTMKMRKFTIADASLERSPGQEADISVGNLVDERHGGPITIGYGRYAPGQSLTETMAVDDVMIVLEGRLSVSTDGETVTAGPGEIVYMPKGETVTIRSHEEGALTAYVTYPHWRPAHA”: the protein production entry is given as “not failed”.
In the case of “KTNFKIVLKEDSELLQEVVVTGYGGKVSRSKLTNSISTVNPQMLDKGIYTNPSQALSGSVPGLKVSLTSGNPTSSPKIILRGGTNFDGSGGPLVVVDGQLRDNFDDINPQDIASMDVLKDAGATAIYGARASNGVILITTKSGKAGH”, the protein production entry is “failed”.
The value for “KVDKKTYKNLIVELQQRMREIQFALYERKIPLVLVFEGMDAAGKGGNIKRIREKLDPTGYEVNGISAPTDVELKHHYLWRFAKKMPKSGHIEIFDRSWYGRVLVERVEGFASQNEWQRASDEINQFEKMWTDEGTIILKFFLCLDKDEQLKRFKDRENNPDKQWKITEEDWRNREKWDEYLEASHDMIESTNTSYAPWYIVPADHKKTSRIEVLKTIIRKCEEVLWGVKTY” was “failed”; that for “LAAWHLSSADYIADTLRLQGMTARGQVLDFGGGIGTHALSAAALPQVDHVWFVDLNPHNQAFVEQRAAALGLSDKLSVHRDLESTGEVRFDTVVCLDVLEHLPDPSAQLQAFHQRMASDATALLNWYFFKGHDGEYPFHFDDPQ” was “failed”.
In the case of “LADVEARARIAIDAAGMGTWDLRPQEGLLLWDDRCKTLFGVPTSTEMSLEVFYAGIYPDDLPLVREAVEHAMRPESDGHYRVEFRIAQPNGLEPRWLLSSGQSQFVDDQCVRFSGVLQDIHAQRQATQALRQLNEMLGER”, the protein production entry is “not failed”.
The value for “LDTLRRYHRQTLQDLPMGVCSLAKDQEVLMWNRAIEELTGVGAQKVVGSRLSALPEPWKGLLERFIDAPDEHLHKQRLVYDGHTRWLNLHKAAIEEPLAPGNSGLVLLVEDLTETQLLEDKLVHSERLASIGRLAAGVAHEIGNPITGI” was “not failed”; that for “LEEALGILDTQRVEIAKRRHLNAVLRHIPAGVAAVDNQGVVQSLNPALAQLLDLPVSAALGRPLQQLCPELDLQQALQEGTGEENRVMRLGSHAVVSNLLPILENGERTGLVLTCQDITVVQRADQRIR” was “failed”.
The value for “LEMKGKRMSVTAVMRELEKEENLYRRSGGGITLSGGEPLAQPEFARELLKACKAKGWHTAIETSGFTTKAVIDEVFPYVDLALTDIKAIDPEIHERNTGVNNRVILENLLRISFLTKVVVRIPVIPGVNDNSQEIHNIAEFARLMQNVDTIHLLPYHSFGENKYNLLGRQYPMGDTKSIEESQMAELKAMVESLGFNCHIGG” was “failed”; that for “LETERNRYKWLFENAVHGIFQASLQAGMRAANPALARMLGYQDPQEVLFSLADLAGNLFVGGAGELAAIGEQLQNQRSLLGYETQLRRKDGSSIDVLMNLLLKPDQDGLVEGFVADITERKLAQQHLEQLNDQLEQR” was “failed”.
For the sequence “LETSSYLNVLVNSQWKSRWCSVRDNHLHFYQDRNRSKVAQQPLSLVGCEVVPDPSPDHLYSFRILHKGEELAKLEAKSSEEMGHWLGLLLSESG”, the protein production result is listed as “not failed”.
Under “LGRITQHIAIKQDITEQVHRFNQLKISEERYRNLMNAVADGIFIHNLQGAFLEVNEAACLSLNYSREELINSYVWDIEVGFSQESLNQLWENVQKGPINTEGMHRRKDGTTFPVDVRLAVFNATGEKLVLAIVRDI” stands “failed”.
